According to patent US20150291693A1 (FRAUNHOFER GESELLSCHAFT ZUR FORDERUNG DER ANGEWANDTEN …, published 2015):

T1: CD30 (human, UniProt P28908 19-595)
T1 sequence (looked up): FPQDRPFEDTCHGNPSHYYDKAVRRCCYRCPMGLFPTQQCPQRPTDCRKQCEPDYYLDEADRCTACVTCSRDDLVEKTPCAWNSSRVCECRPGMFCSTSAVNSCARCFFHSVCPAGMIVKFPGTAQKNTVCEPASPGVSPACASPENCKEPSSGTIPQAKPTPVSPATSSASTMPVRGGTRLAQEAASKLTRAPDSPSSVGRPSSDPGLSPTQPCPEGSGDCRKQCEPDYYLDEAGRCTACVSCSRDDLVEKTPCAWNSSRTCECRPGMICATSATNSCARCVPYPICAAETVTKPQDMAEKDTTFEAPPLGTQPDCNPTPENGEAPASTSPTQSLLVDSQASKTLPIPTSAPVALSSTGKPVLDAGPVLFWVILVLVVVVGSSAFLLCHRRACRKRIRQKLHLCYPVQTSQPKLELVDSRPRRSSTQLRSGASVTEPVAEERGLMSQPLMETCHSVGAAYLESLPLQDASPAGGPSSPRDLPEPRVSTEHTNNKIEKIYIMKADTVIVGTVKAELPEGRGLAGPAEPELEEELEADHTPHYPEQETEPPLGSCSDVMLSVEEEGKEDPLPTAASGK


Key:
[1] = target: CD64 (Fc gamma receptor I) (human, UniProt P12314 16-374); assay: cell-based or functional assay
CD64 (Fc gamma receptor I), sequence (P12314 16-374, form in doubt): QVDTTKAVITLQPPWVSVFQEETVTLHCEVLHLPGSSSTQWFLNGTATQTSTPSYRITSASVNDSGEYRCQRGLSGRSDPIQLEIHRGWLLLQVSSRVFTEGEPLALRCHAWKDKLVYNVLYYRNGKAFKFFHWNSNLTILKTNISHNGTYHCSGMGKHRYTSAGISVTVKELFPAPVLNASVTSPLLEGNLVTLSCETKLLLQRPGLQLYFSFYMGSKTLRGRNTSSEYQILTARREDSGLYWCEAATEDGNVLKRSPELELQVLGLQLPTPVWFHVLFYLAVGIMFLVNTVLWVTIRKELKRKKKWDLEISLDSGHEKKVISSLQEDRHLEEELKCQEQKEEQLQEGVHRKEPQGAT

[2] = target: T1, CD30; assay: cell-based or functional assay

Binder | IC50, XTT viability assay on Interferon γ stimulated HL60 cells [1] | IC50, XTT viability assay on L540 cells [2]
Gm-H22(scFv) (other) IIGGREVIPHSRPYMASLQRNGSHLCGGVLVHPKWVLTAAHCLAQRMAQLRLVLGLHTLDSPGLTFHIKAAIQHPRYKPVPALENDLALLQLDGKVKPSRTIRPLALPSKRQVVAAGTRCSMAGWGLTHQGGRLSRVLRELDLQVLDTRMCNNSRFWNGSLSPSMVCLAADSKDQAPCKGDSGGPLVCGKGRVLAGVLSFSSRVCTDIFKPPVATAVAPYVSWIRKVTGRSAAEHEGDAAQPAMAQVQLVESGGGVVQPGRSLRLSCSSSGFIFSDNYMYWVRQAPGKGLEWVATISDGGSYTYYPDSVKGRFTISRDNSKNTLFLQMDSLRPEDTGVYFCARGYYRYEGAMDYWGQGTPVTVSSGGGGSGGGGSGGGGSDIQLTQSPSSLSASVGDRVTITCKSSQSVLYSSNQKNYLAWYQQKPGKAPKLLIYWASTRESGVPSRFSGSGSGTDFTFTISSLQPEDIATYYCHQYLSSWTFGQGTKLEIK | 1.2 nM | 
Gm-Ki4(scFv) (other) IIGGREVIPHSRPYMASLQRNGSHLCGGVLVHPKWVLTAAHCLAQRMAQLRLVLGLHTLDSPGLTFHIKAAIQHPRYKPVPALENDLALLQLDGKVKPSRTIRPLALPSKRQVVAAGTRCSMAGWGLTHQGGRLSRVLRELDLQVLDTRMCNNSRFWNGSLSPSMVCLAADSKDQAPCKGDSGGPLVCGKGRVLAGVLSFSSRVCTDIFKPPVATAVAPYVSWIRKVTGRSAAEHEGDAAQPAMAQVKLQESGTELAKPGAAVKMSCKASGYTFTDYWMHWVKQRPGQGLEWIGYINPNTAYTDYNQKFKDKATLTADKSSSTAYMQLRSLTSEDSAVYYCAKKTTQTTWGFPFWGQGTTVTVSSGGGGSGGGGSGGGGSDIVLTQSPKSMAMSVGERVTLSCKASENVDSFVSWYQQKPGQSPKLLIYGASNRYTGVPDRFAGSGSGRDFTLTISSVQAEDLADYHCGQNYRYPLTFGAGTKLEIKR |  | 272 nM
